# B1: Azoarcus group I ribozyme (parent)
# chain: GUGCCUUGCGCCGGGAAACCACGCAAGGGAUGGUGUCAAAUUCGGCGAAACCUAAGCGCCCGCCCGGGCGUAUGGCAACGCCGAGCCAAGCUUCGGCGCCUGCGCCGAUGAAGGUGUAGAGACUAGACGGCACCCACCUAAGGCAAACGCUAUGGUGAAGGCAUAGUCCAGGGAGUGGCGAAAGUCACACAAACCGG
# Variants of: B1
# Experiment: reverse-splicing fitness (ratio to wild type); higher = more active; in vitro selection; Mg2+ level not given
# Procedure, shortened: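 An in vitro group I ribozyme library with randomized positions was T7-transcribed and gel-purified. In triplicate, 10 pmol RNA in EPPS pH 7.5 was reacted with 50 pmoles of a 30-nt RNA substrate for 1 h at 37 °C across several added MgCl2 levels (1–48 mM), then stopped with EDTA. Products were reverse transcribed from a substrate-complementary primer, PCR-amplified and sequenced (HiSeq 4000). Fitness is a variant's read proportion after selection over that before, normalised to wild type.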
row,Variant,reverse-splicing fitness
1,GUGCCUUGCGCCGGGAAACCACGCAAGGGAUGGUGUCAAAUUCGGCGAAACCUAAGCGCCCGCCCGGGCGUAUGGCAACGCCGAGCCAAGCUUCGGCGCCUGCGCCGAUGCAGGUGUAGCGACUAGACGGCACCCACCUAAGGCGAACGAUAUGGUGAAGGCAUAGUCGAGGGAGGGGCGAAAGUCACACAAACCGG,0.00696
2,GUGCCUUGCGCCGGGAAACCACGCAAGGGAUGGUGUCAAAUUCGGCGAAACCUAAGCGCCCGCCCGGGCGUAUGGCAACGCCGAGCCAAGCUUCGGCGCCUGCGCCGAUGCAGGUGUAGCGACUAGACGGCACCCACCUAAGGCGAACGAUAUGGUGAAGGCAUAGUCUAGGGAGUGGCGAAAGUCACACAAACCGG,0.0324
3,GUGCCUUGCGCCGGGAAACCACGCAAGGGAUGGUGUCAAAUUCGGCGAAACCUAAGCGCCCGCCCGGGCGUAUGGCAACGCCGAGCCAAGCUUCGGCGCCUGCGCCGAUGCAGGUGUAGCGACUAGACGGCACCCACCUAAGGCGAACGAUAUGGUGAAGGCAUAGUCUAGGGAGAGGCGAAAGUCACACAAACCGG,0.0207
4,GUGCCUUGCGCCGGGAAACCACGCAAGGGAUGGUGUCAAAUUCGGCGAAACCUAAGCGCCCGCCCGGGCGUAUGGCAACGCCGAGCCAAGCUUCGGCGCCUGCGCCGAUGCAGGUGUAGCGACUAGACGGCACCCACCUAAGGCGAACGAUAUGGUGAAGGCAUAGUCUAGGGAGCGGCGAAAGUCACACAAACCGG,0.024
5,GUGCCUUGCGCCGGGAAACCACGCAAGGGAUGGUGUCAAAUUCGGCGAAACCUAAGCGCCCGCCCGGGCGUAUGGCAACGCCGAGCCAAGCUUCGGCGCCUGCGCCGAUGCAGGUGUAGCGACUAGACGGCACCCACCUAAGGCGAACGAUAUGGUGAAGGCAUAGUCUAGGGAGGGGCGAAAGUCACACAAACCGG,0.00728
6,GUGCCUUGCGCCGGGAAACCACGCAAGGGAUGGUGUCAAAUUCGGCGAAACCUAAGCGCCCGCCCGGGCGUAUGGCAACGCCGAGCCAAGCUUCGGCGCCUGCGCCGAUGCAGGUGUAGCGACUAGACGGCACCCACCUAAGGCGAACGAUAUGGUGAAGGCAUAGUCCAGGGAGAGGCGAAAGUCACACAAACCGG,0.0428
7,GUGCCUUGCGCCGGGAAACCACGCAAGGGAUGGUGUCAAAUUCGGCGAAACCUAAGCGCCCGCCCGGGCGUAUGGCAACGCCGAGCCAAGCUUCGGCGCCUGCGCCGAUGCAGGUGUAGCGACUAGACGGCACCCACCUAAGGCGAACGAUAUGGUGAAGGCAUAGUCCAGGGAGCGGCGAAAGUCACACAAACCGG,0.0663
8,GUGCCUUGCGCCGGGAAACCACGCAAGGGAUGGUGUCAAAUUCGGCGAAACCUAAGCGCCCGCCCGGGCGUAUGGCAACGCCGAGCCAAGCUUCGGCGCCUGCGCCGAUGCAGGUGUAGCGACUAGACGGCACCCACCUAAGGCGAACGAUAUGGUGAAGGCAUAGUCCAGGGAGGGGCGAAAGUCACACAAACCGG,0.0143
9,GUGCCUUGCGCCGGGAAACCACGCAAGGGAUGGUGUCAAAUUCGGCGAAACCUAAGCGCCCGCCCGGGCGUAUGGCAACGCCGAGCCAAGCUUCGGCGCCUGCGCCGAUGCAGGUGUAGCGACUAGACGGCACCCACCUAAGGCGAACGGUAUGGUGAAGGCAUAGUCCAGGGAGUGGCGAAAGUCACACAAACCGG,0.0633
10,GUGCCUUGCGCCGGGAAACCACGCAAGGGAUGGUGUCAAAUUCGGCGAAACCUAAGCGCCCGCCCGGGCGUAUGGCAACGCCGAGCCAAGCUUCGGCGCCUGCGCCGAUGCAGGUGUAGCGACUAGACGGCACCCACCUAAGGCGAACGGUAUGGUGAAGGCAUAGUCAAGGGAGUGGCGAAAGUCACACAAACCGG,0.009
11,GUGCCUUGCGCCGGGAAACCACGCAAGGGAUGGUGUCAAAUUCGGCGAAACCUAAGCGCCCGCCCGGGCGUAUGGCAACGCCGAGCCAAGCUUCGGCGCCUGCGCCGAUGCAGGUGUAGCGACUAGACGGCACCCACCUAAGGCGAACGGUAUGGUGAAGGCAUAGUCAAGGGAGAGGCGAAAGUCACACAAACCGG,0.0133
12,GUGCCUUGCGCCGGGAAACCACGCAAGGGAUGGUGUCAAAUUCGGCGAAACCUAAGCGCCCGCCCGGGCGUAUGGCAACGCCGAGCCAAGCUUCGGCGCCUGCGCCGAUGCAGGUGUAGCGACUAGACGGCACCCACCUAAGGCGAACGGUAUGGUGAAGGCAUAGUCAAGGGAGCGGCGAAAGUCACACAAACCGG,0.0116
13,GUGCCUUGCGCCGGGAAACCACGCAAGGGAUGGUGUCAAAUUCGGCGAAACCUAAGCGCCCGCCCGGGCGUAUGGCAACGCCGAGCCAAGCUUCGGCGCCUGCGCCGAUGCAGGUGUAGCGACUAGACGGCACCCACCUAAGGCGAACGGUAUGGUGAAGGCAUAGUCAAGGGAGGGGCGAAAGUCACACAAACCGG,0.00793
14,GUGCCUUGCGCCGGGAAACCACGCAAGGGAUGGUGUCAAAUUCGGCGAAACCUAAGCGCCCGCCCGGGCGUAUGGCAACGCCGAGCCAAGCUUCGGCGCCUGCGCCGAUGCAGGUGUAGCGACUAGACGGCACCCACCUAAGGCGAACGGUAUGGUGAAGGCAUAGUCGAGGGAGUGGCGAAAGUCACACAAACCGG,0.00738
15,GUGCCUUGCGCCGGGAAACCACGCAAGGGAUGGUGUCAAAUUCGGCGAAACCUAAGCGCCCGCCCGGGCGUAUGGCAACGCCGAGCCAAGCUUCGGCGCCUGCGCCGAUGCAGGUGUAGCGACUAGACGGCACCCACCUAAGGCGAACGGUAUGGUGAAGGCAUAGUCGAGGGAGAGGCGAAAGUCACACAAACCGG,0.0102
16,GUGCCUUGCGCCGGGAAACCACGCAAGGGAUGGUGUCAAAUUCGGCGAAACCUAAGCGCCCGCCCGGGCGUAUGGCAACGCCGAGCCAAGCUUCGGCGCCUGCGCCGAUGCAGGUGUAGCGACUAGACGGCACCCACCUAAGGCGAACGGUAUGGUGAAGGCAUAGUCGAGGGAGCGGCGAAAGUCACACAAACCGG,0.0119
17,GUGCCUUGCGCCGGGAAACCACGCAAGGGAUGGUGUCAAAUUCGGCGAAACCUAAGCGCCCGCCCGGGCGUAUGGCAACGCCGAGCCAAGCUUCGGCGCCUGCGCCGAUGCAGGUGUAGCGACUAGACGGCACCCACCUAAGGCGAACGGUAUGGUGAAGGCAUAGUCGAGGGAGGGGCGAAAGUCACACAAACCGG,0.00553
18,GUGCCUUGCGCCGGGAAACCACGCAAGGGAUGGUGUCAAAUUCGGCGAAACCUAAGCGCCCGCCCGGGCGUAUGGCAACGCCGAGCCAAGCUUCGGCGCCUGCGCCGAUGCAGGUGUAGCGACUAGACGGCACCCACCUAAGGCGAACGGUAUGGUGAAGGCAUAGUCUAGGGAGUGGCGAAAGUCACACAAACCGG,0.0264
19,GUGCCUUGCGCCGGGAAACCACGCAAGGGAUGGUGUCAAAUUCGGCGAAACCUAAGCGCCCGCCCGGGCGUAUGGCAACGCCGAGCCAAGCUUCGGCGCCUGCGCCGAUGCAGGUGUAGCGACUAGACGGCACCCACCUAAGGCGAACGGUAUGGUGAAGGCAUAGUCUAGGGAGAGGCGAAAGUCACACAAACCGG,0.0114
20,GUGCCUUGCGCCGGGAAACCACGCAAGGGAUGGUGUCAAAUUCGGCGAAACCUAAGCGCCCGCCCGGGCGUAUGGCAACGCCGAGCCAAGCUUCGGCGCCUGCGCCGAUGCAGGUGUAGCGACUAGACGGCACCCACCUAAGGCGAACGGUAUGGUGAAGGCAUAGUCUAGGGAGCGGCGAAAGUCACACAAACCGG,0.0128
21,GUGCCUUGCGCCGGGAAACCACGCAAGGGAUGGUGUCAAAUUCGGCGAAACCUAAGCGCCCGCCCGGGCGUAUGGCAACGCCGAGCCAAGCUUCGGCGCCUGCGCCGAUGCAGGUGUAGCGACUAGACGGCACCCACCUAAGGCGAACGGUAUGGUGAAGGCAUAGUCUAGGGAGGGGCGAAAGUCACACAAACCGG,0.0071
22,GUGCCUUGCGCCGGGAAACCACGCAAGGGAUGGUGUCAAAUUCGGCGAAACCUAAGCGCCCGCCCGGGCGUAUGGCAACGCCGAGCCAAGCUUCGGCGCCUGCGCCGAUGCAGGUGUAGCGACUAGACGGCACCCACCUAAGGCGAACGGUAUGGUGAAGGCAUAGUCCAGGGAGAGGCGAAAGUCACACAAACCGG,0.0158
23,GUGCCUUGCGCCGGGAAACCACGCAAGGGAUGGUGUCAAAUUCGGCGAAACCUAAGCGCCCGCCCGGGCGUAUGGCAACGCCGAGCCAAGCUUCGGCGCCUGCGCCGAUGCAGGUGUAGCGACUAGACGGCACCCACCUAAGGCGAACGGUAUGGUGAAGGCAUAGUCCAGGGAGCGGCGAAAGUCACACAAACCGG,0.0368
24,GUGCCUUGCGCCGGGAAACCACGCAAGGGAUGGUGUCAAAUUCGGCGAAACCUAAGCGCCCGCCCGGGCGUAUGGCAACGCCGAGCCAAGCUUCGGCGCCUGCGCCGAUGCAGGUGUAGCGACUAGACGGCACCCACCUAAGGCGAACGGUAUGGUGAAGGCAUAGUCCAGGGAGGGGCGAAAGUCACACAAACCGG,0.0072
25,GUGCCUUGCGCCGGGAAACCACGCAAGGGAUGGUGUCAAAUUCGGCGAAACCUAAGCGCCCGCCCGGGCGUAUGGCAACGCCGAGCCAAGCUUCGGCGCCUGCGCCGAUGCAGGUGUAGCGACUAGACGGCACCCACCUAAGGCGAACGUUAUGGUGAAGGCAUAGUCCAGGGAGUGGCGAAAGUCACACAAACCGG,0.462
26,GUGCCUUGCGCCGGGAAACCACGCAAGGGAUGGUGUCAAAUUCGGCGAAACCUAAGCGCCCGCCCGGGCGUAUGGCAACGCCGAGCCAAGCUUCGGCGCCUGCGCCGAUGCAGGUGUAGCGACUAGACGGCACCCACCUAAGGCGAACGUUAUGGUGAAGGCAUAGUCAAGGGAGUGGCGAAAGUCACACAAACCGG,0.0131
27,GUGCCUUGCGCCGGGAAACCACGCAAGGGAUGGUGUCAAAUUCGGCGAAACCUAAGCGCCCGCCCGGGCGUAUGGCAACGCCGAGCCAAGCUUCGGCGCCUGCGCCGAUGCAGGUGUAGCGACUAGACGGCACCCACCUAAGGCGAACGUUAUGGUGAAGGCAUAGUCAAGGGAGAGGCGAAAGUCACACAAACCGG,0.014
28,GUGCCUUGCGCCGGGAAACCACGCAAGGGAUGGUGUCAAAUUCGGCGAAACCUAAGCGCCCGCCCGGGCGUAUGGCAACGCCGAGCCAAGCUUCGGCGCCUGCGCCGAUGCAGGUGUAGCGACUAGACGGCACCCACCUAAGGCGAACGUUAUGGUGAAGGCAUAGUCAAGGGAGCGGCGAAAGUCACACAAACCGG,0.0144
29,GUGCCUUGCGCCGGGAAACCACGCAAGGGAUGGUGUCAAAUUCGGCGAAACCUAAGCGCCCGCCCGGGCGUAUGGCAACGCCGAGCCAAGCUUCGGCGCCUGCGCCGAUGCAGGUGUAGCGACUAGACGGCACCCACCUAAGGCGAACGUUAUGGUGAAGGCAUAGUCAAGGGAGGGGCGAAAGUCACACAAACCGG,0.00559
30,GUGCCUUGCGCCGGGAAACCACGCAAGGGAUGGUGUCAAAUUCGGCGAAACCUAAGCGCCCGCCCGGGCGUAUGGCAACGCCGAGCCAAGCUUCGGCGCCUGCGCCGAUGCAGGUGUAGCGACUAGACGGCACCCACCUAAGGCGAACGUUAUGGUGAAGGCAUAGUCGAGGGAGUGGCGAAAGUCACACAAACCGG,0.00981
